In US20220306695A1, “COMPSTATIN ANALOGUES AND THEIR MEDICAL USES” (priority 2019, published 2022):
Starred links: 1 amine or outer side, 2 acyl side, 3 side chain; linkers in the order of their positions; H or OH if unused. Positions of bridges follow the written chain, without caps; N, C: chain ends. Non-standard residues stand in square brackets, D forms with d. Groups on a side chain read outwards from the residue. *: point of attachment. C20 diacid = O=C(O)CCCCCCCCCCCCCCCCCCC(=O)*; Trp(1-Me) = Cn1cc(C[C@H](N)C(=O)O)c2ccccc21; C18 diacid = O=C(O)CCCCCCCCCCCCCCCCC(=O)*; γGlu = O=C(O)[C@H](CCC(=O)[*:2])N[*:1]; hCys = N[C@@H](CCS)C(=O)O; AEEA = NCCOCCOCC(=O)O; Sar = CNCC(=O)O

Target: Human C3 (human, UniProt P01024 23-1663)
Experiment: cell-based or functional assay

Sequence of Human C3 (P01024 23-1663 limits assumed): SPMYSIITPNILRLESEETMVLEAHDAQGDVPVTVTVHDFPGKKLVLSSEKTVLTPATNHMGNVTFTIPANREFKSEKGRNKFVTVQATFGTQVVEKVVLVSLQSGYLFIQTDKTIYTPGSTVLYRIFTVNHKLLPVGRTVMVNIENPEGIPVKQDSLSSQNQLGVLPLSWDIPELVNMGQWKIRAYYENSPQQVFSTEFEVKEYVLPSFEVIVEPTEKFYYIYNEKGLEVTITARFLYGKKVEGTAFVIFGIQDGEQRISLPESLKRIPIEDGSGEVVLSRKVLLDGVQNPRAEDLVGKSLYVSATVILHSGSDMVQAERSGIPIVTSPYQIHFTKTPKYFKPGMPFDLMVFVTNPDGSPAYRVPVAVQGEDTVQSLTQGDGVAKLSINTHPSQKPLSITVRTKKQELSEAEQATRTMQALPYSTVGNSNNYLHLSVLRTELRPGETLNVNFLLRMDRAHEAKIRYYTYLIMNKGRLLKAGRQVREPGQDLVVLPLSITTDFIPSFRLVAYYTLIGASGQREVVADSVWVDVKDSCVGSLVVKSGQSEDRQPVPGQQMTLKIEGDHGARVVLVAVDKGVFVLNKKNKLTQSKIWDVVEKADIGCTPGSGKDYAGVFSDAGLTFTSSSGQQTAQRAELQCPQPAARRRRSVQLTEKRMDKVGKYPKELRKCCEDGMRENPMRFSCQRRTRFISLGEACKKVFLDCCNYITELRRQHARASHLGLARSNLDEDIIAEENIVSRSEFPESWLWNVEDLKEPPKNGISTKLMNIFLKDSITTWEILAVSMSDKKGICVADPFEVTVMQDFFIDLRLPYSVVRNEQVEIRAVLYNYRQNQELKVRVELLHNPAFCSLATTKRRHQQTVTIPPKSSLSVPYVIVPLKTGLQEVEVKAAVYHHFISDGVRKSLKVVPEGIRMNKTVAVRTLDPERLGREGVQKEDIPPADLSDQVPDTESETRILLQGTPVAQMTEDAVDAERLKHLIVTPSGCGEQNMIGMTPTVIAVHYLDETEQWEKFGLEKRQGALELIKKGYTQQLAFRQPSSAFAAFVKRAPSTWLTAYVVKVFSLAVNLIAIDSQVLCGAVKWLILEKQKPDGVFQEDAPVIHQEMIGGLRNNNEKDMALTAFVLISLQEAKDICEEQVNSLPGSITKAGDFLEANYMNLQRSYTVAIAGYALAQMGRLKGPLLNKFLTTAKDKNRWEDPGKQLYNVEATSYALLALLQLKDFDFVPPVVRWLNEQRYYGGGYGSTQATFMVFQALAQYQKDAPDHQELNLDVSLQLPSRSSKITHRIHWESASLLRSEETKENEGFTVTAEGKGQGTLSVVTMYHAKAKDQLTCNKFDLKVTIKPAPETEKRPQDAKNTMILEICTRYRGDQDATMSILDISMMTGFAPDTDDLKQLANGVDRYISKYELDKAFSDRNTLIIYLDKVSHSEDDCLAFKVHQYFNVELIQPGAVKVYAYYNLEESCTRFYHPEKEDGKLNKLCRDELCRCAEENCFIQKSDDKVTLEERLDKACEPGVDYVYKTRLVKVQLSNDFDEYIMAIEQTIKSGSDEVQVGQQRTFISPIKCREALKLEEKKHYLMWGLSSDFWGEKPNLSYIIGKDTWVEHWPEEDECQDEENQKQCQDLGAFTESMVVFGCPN

B1: Compound 7 (peptide)
peptide: Ac-ICIWQKWGEHRCT-NH2
modifications: disulfide 2-12
SMILES: CC[C@H](C)[C@H](NC(C)=O)C(=O)N[C@H]1CSSC[C@@H](C(=O)N[C@H](C(N)=O)[C@@H](C)O)NC(=O)[C@H](CCCNC(=N)N)NC(=O)[C@H](Cc2c[nH]cn2)NC(=O)[C@H](CCC(=O)O)NC(=O)CNC(=O)[C@H](Cc2c[nH]c3ccccc23)NC(=O)[C@H](CCCCN)NC(=O)[C@H](CCC(N)=O)NC(=O)[C@H](Cc2c[nH]c3ccccc23)NC(=O)[C@H]([C@@H](C)CC)NC1=O
- IC50[nM], inhibition of hemolysis: < 1000 nM

B2: Compound 118 (peptide)
peptide: Ac-SEYCI[Trp(1-Me)]QDWGEHRC[Sar]EGAK([AEEA-γGlu-AEEA-Gly-γGlu-C18 diacid])-NH2
modifications: disulfide 4-14
SMILES: CC[C@H](C)[C@@H]1NC(=O)[C@@H](NC(=O)[C@H](Cc2ccc(O)cc2)NC(=O)[C@H](CCC(=O)O)NC(=O)[C@H](CO)NC(C)=O)CSSC[C@@H](C(=O)N(C)CC(=O)N[C@@H](CCC(=O)O)C(=O)NCC(=O)N[C@@H](C)C(=O)N[C@@H](CCCCNC(=O)COCCOCCNC(=O)CC[C@H](NC(=O)COCCOCCNC(=O)CNC(=O)CC[C@H](NC(=O)CCCCCCCCCCCCCCCCC(=O)O)C(=O)O)C(=O)O)C(N)=O)NC(=O)[C@H](CCCNC(=N)N)NC(=O)[C@H](Cc2c[nH]cn2)NC(=O)[C@H](CCC(=O)O)NC(=O)CNC(=O)[C@H](Cc2c[nH]c3ccccc23)NC(=O)[C@H](CC(=O)O)NC(=O)[C@H](CCC(N)=O)NC(=O)[C@H](Cc2cn(C)c3ccccc23)NC1=O
- IC50[nM], inhibition of hemolysis: < 100 nM

B3: Compound 120 (peptide)
peptide: Ac-SEFCI[Trp(1-Me)]QEWGEHRC[Sar]EGAK([AEEA-γGlu-AEEA-Gly-γGlu-C18 diacid])-NH2
modifications: disulfide 4-14
SMILES: CC[C@H](C)[C@@H]1NC(=O)[C@@H](NC(=O)[C@H](Cc2ccccc2)NC(=O)[C@H](CCC(=O)O)NC(=O)[C@H](CO)NC(C)=O)CSSC[C@@H](C(=O)N(C)CC(=O)N[C@@H](CCC(=O)O)C(=O)NCC(=O)N[C@@H](C)C(=O)N[C@@H](CCCCNC(=O)COCCOCCNC(=O)CC[C@H](NC(=O)COCCOCCNC(=O)CNC(=O)CC[C@H](NC(=O)CCCCCCCCCCCCCCCCC(=O)O)C(=O)O)C(=O)O)C(N)=O)NC(=O)[C@H](CCCNC(=N)N)NC(=O)[C@H](Cc2c[nH]cn2)NC(=O)[C@H](CCC(=O)O)NC(=O)CNC(=O)[C@H](Cc2c[nH]c3ccccc23)NC(=O)[C@H](CCC(=O)O)NC(=O)[C@H](CCC(N)=O)NC(=O)[C@H](Cc2cn(C)c3ccccc23)NC1=O
- IC50[nM], inhibition of hemolysis: < 250 nM

B4: Compound 10 (peptide)
peptide: Ac-ESSAYCIWQDWGEHRCT-NH2
modifications: disulfide 6-16
SMILES: CC[C@H](C)[C@@H]1NC(=O)[C@@H](NC(=O)[C@H](Cc2ccc(O)cc2)NC(=O)[C@H](C)NC(=O)[C@H](CO)NC(=O)[C@H](CO)NC(=O)[C@H](CCC(=O)O)NC(C)=O)CSSC[C@@H](C(=O)N[C@H](C(N)=O)[C@@H](C)O)NC(=O)[C@H](CCCNC(=N)N)NC(=O)[C@H](Cc2c[nH]cn2)NC(=O)[C@H](CCC(=O)O)NC(=O)CNC(=O)[C@H](Cc2c[nH]c3ccccc23)NC(=O)[C@H](CC(=O)O)NC(=O)[C@H](CCC(N)=O)NC(=O)[C@H](Cc2c[nH]c3ccccc23)NC1=O
- IC50[nM], inhibition of hemolysis: < 100 nM

B5: Compound 148 (peptide)
peptide: SEFAIWQDWGEHRCTEGEXESK
modifications: not fully specified; N-acetyl; C-terminal amide; delta-cystathionine (Ctt2) thioether bridge A4-hCys14 (hCys written C); W6 is 1-Me-Trp; X19 is Peg3; K22 side chain bears [17-carboxy-heptadecanoyl][γGlu]
- IC50[nM], inhibition of hemolysis: < 100 nM

B6: Compound 166 (peptide)
peptide: Ac-SEF[hCys]I[Trp(1-Me)]QDW[Sar]EHRA[Sar]EGE[AEEA]ESK([γGlu-Gly-γGlu-C18 diacid])-NH2
modifications: thioether 4-14
SMILES: CC[C@H](C)[C@@H]1NC(=O)[C@@H](NC(=O)[C@H](Cc2ccccc2)NC(=O)[C@H](CCC(=O)O)NC(=O)[C@H](CO)NC(C)=O)CCSC[C@@H](C(=O)N(C)CC(=O)N[C@@H](CCC(=O)O)C(=O)NCC(=O)N[C@@H](CCC(=O)O)C(=O)NCCOCCOCC(=O)N[C@@H](CCC(=O)O)C(=O)N[C@@H](CO)C(=O)N[C@@H](CCCCNC(=O)CC[C@H](NC(=O)CNC(=O)CC[C@H](NC(=O)CCCCCCCCCCCCCCCCC(=O)O)C(=O)O)C(=O)O)C(N)=O)NC(=O)[C@H](CCCNC(=N)N)NC(=O)[C@H](Cc2c[nH]cn2)NC(=O)[C@H](CCC(=O)O)NC(=O)CN(C)C(=O)[C@H](Cc2c[nH]c3ccccc23)NC(=O)[C@H](CC(=O)O)NC(=O)[C@H](CCC(N)=O)NC(=O)[C@H](Cc2cn(C)c3ccccc23)NC1=O
- IC50[nM], inhibition of hemolysis: < 100 nM

B7: Compound 106 (peptide)
peptide: Ac-SAYCI[Trp(1-Me)]QDWGEHRC[Sar]EK([γGlu-Gly-γGlu-C18 diacid])-NH2
modifications: disulfide 4-14
SMILES: CC[C@H](C)[C@@H]1NC(=O)[C@@H](NC(=O)[C@H](Cc2ccc(O)cc2)NC(=O)[C@H](C)NC(=O)[C@H](CO)NC(C)=O)CSSC[C@@H](C(=O)N(C)CC(=O)N[C@@H](CCC(=O)O)C(=O)N[C@@H](CCCCNC(=O)CC[C@H](NC(=O)CNC(=O)CC[C@H](NC(=O)CCCCCCCCCCCCCCCCC(=O)O)C(=O)O)C(=O)O)C(N)=O)NC(=O)[C@H](CCCNC(=N)N)NC(=O)[C@H](Cc2c[nH]cn2)NC(=O)[C@H](CCC(=O)O)NC(=O)CNC(=O)[C@H](Cc2c[nH]c3ccccc23)NC(=O)[C@H](CC(=O)O)NC(=O)[C@H](CCC(N)=O)NC(=O)[C@H](Cc2cn(C)c3ccccc23)NC1=O
- IC50[nM], inhibition of hemolysis: < 250 nM

B8: Compound 151 (peptide)
peptide: Ac-SEFAI[Trp(1-Me)]QDWGEHR[hCys]TGAES-NH2
modifications: thioether 4-14
SMILES: CC[C@H](C)[C@@H]1NC(=O)[C@@H](NC(=O)[C@H](Cc2ccccc2)NC(=O)[C@H](CCC(=O)O)NC(=O)[C@H](CO)NC(C)=O)CSCC[C@@H](C(=O)N[C@H](C(=O)NCC(=O)N[C@@H](C)C(=O)N[C@@H](CCC(=O)O)C(=O)N[C@@H](CO)C(N)=O)[C@@H](C)O)NC(=O)[C@H](CCCNC(=N)N)NC(=O)[C@H](Cc2c[nH]cn2)NC(=O)[C@H](CCC(=O)O)NC(=O)CNC(=O)[C@H](Cc2c[nH]c3ccccc23)NC(=O)[C@H](CC(=O)O)NC(=O)[C@H](CCC(N)=O)NC(=O)[C@H](Cc2cn(C)c3ccccc23)NC1=O
- IC50[nM], inhibition of hemolysis: < 100 nM

B9: Compound 53 (peptide)
peptide: Ac-EGSAFCI[Trp(1-Me)]QDWGEHRC[Sar]E-NH2
modifications: disulfide 6-16
SMILES: CC[C@H](C)[C@@H]1NC(=O)[C@@H](NC(=O)[C@H](Cc2ccccc2)NC(=O)[C@H](C)NC(=O)[C@H](CO)NC(=O)CNC(=O)[C@H](CCC(=O)O)NC(C)=O)CSSC[C@@H](C(=O)N(C)CC(=O)N[C@@H](CCC(=O)O)C(N)=O)NC(=O)[C@H](CCCNC(=N)N)NC(=O)[C@H](Cc2c[nH]cn2)NC(=O)[C@H](CCC(=O)O)NC(=O)CNC(=O)[C@H](Cc2c[nH]c3ccccc23)NC(=O)[C@H](CC(=O)O)NC(=O)[C@H](CCC(N)=O)NC(=O)[C@H](Cc2cn(C)c3ccccc23)NC1=O
- IC50[nM], inhibition of hemolysis: < 100 nM

B10: Compound 9 (peptide)
peptide: Ac-YCIWQDWGEHRCT-NH2
modifications: disulfide 2-12
SMILES: CC[C@H](C)[C@@H]1NC(=O)[C@@H](NC(=O)[C@H](Cc2ccc(O)cc2)NC(C)=O)CSSC[C@@H](C(=O)N[C@H](C(N)=O)[C@@H](C)O)NC(=O)[C@H](CCCNC(=N)N)NC(=O)[C@H](Cc2c[nH]cn2)NC(=O)[C@H](CCC(=O)O)NC(=O)CNC(=O)[C@H](Cc2c[nH]c3ccccc23)NC(=O)[C@H](CC(=O)O)NC(=O)[C@H](CCC(N)=O)NC(=O)[C@H](Cc2c[nH]c3ccccc23)NC1=O
- IC50[nM], inhibition of hemolysis: < 100 nM

Binder: Ac-SEFCI[Trp(1-Me)]QDWGEHRC[Sar]EGE[AEEA][AEEA]K([γGlu-Gly-γGlu-C20 diacid])-NH2 (disulfide 4-14, also called comp 128) [Compound 128]
- IC50[nM], inhibition of hemolysis: < 100 nM

Binder: Ac-SEFCI[Trp(1-Me)]QDWGEHRC[Sar]EGE[AEEA][AEEA]K([γGlu-Gly-γGlu-C18 diacid])-NH2 (disulfide 4-14) [Compound 123]
- IC50[nM], inhibition of hemolysis: < 100 nM

B11: Compound 152 (peptide)
peptide: SEFCIWQDWGEHRAGEGEXXK
modifications: not fully specified; N-acetyl; C-terminal amide; gamma-cystathionine (Ctt1) thioether bridge hCys4-A14 (hCys written C); W6 is 1-Me-Trp; G15 is Sar; X19 and X20 are Peg3; K21 side chain bears [17-carboxy-heptadecanoyl][γGlu]G[γGlu]
- IC50[nM], inhibition of hemolysis: < 100 nM

B12: Compound 144 (peptide)
peptide: Ac-SEFCI[Trp(1-Me)]QDW[Sar]EHRC[Sar]E[AEEA][AEEA]K([γGlu-Gly-γGlu-C18 diacid])-NH2
modifications: disulfide 4-14
SMILES: CC[C@H](C)[C@@H]1NC(=O)[C@@H](NC(=O)[C@H](Cc2ccccc2)NC(=O)[C@H](CCC(=O)O)NC(=O)[C@H](CO)NC(C)=O)CSSC[C@@H](C(=O)N(C)CC(=O)N[C@@H](CCC(=O)O)C(=O)NCCOCCOCC(=O)NCCOCCOCC(=O)N[C@@H](CCCCNC(=O)CC[C@H](NC(=O)CNC(=O)CC[C@H](NC(=O)CCCCCCCCCCCCCCCCC(=O)O)C(=O)O)C(=O)O)C(N)=O)NC(=O)[C@H](CCCNC(=N)N)NC(=O)[C@H](Cc2c[nH]cn2)NC(=O)[C@H](CCC(=O)O)NC(=O)CN(C)C(=O)[C@H](Cc2c[nH]c3ccccc23)NC(=O)[C@H](CC(=O)O)NC(=O)[C@H](CCC(N)=O)NC(=O)[C@H](Cc2cn(C)c3ccccc23)NC1=O
- IC50[nM], inhibition of hemolysis: < 100 nM

B13: Compound 8 (peptide)
peptide: Ac-ICIWQKWGAHRCTGAES-NH2
modifications: disulfide 2-12
SMILES: CC[C@H](C)[C@H](NC(C)=O)C(=O)N[C@H]1CSSC[C@@H](C(=O)N[C@H](C(=O)NCC(=O)N[C@@H](C)C(=O)N[C@@H](CCC(=O)O)C(=O)N[C@@H](CO)C(N)=O)[C@@H](C)O)NC(=O)[C@H](CCCNC(=N)N)NC(=O)[C@H](Cc2c[nH]cn2)NC(=O)[C@H](C)NC(=O)CNC(=O)[C@H](Cc2c[nH]c3ccccc23)NC(=O)[C@H](CCCCN)NC(=O)[C@H](CCC(N)=O)NC(=O)[C@H](Cc2c[nH]c3ccccc23)NC(=O)[C@H]([C@@H](C)CC)NC1=O
- IC50[nM], inhibition of hemolysis: < 500 nM
